# Reference: US20080306243A1 (NEC, published 2008)
# B1: SEQ ID NO 6 (peptide)
# peptide: ILSRIVGGW
# notes: Synthetic 9-mer peptide of PSA (GenBank M26663)
# B2: SEQ ID NO 7 (peptide)
# peptide: VHPQKVTKF
# notes: as for B1
# B3: SEQ ID NO 5 (peptide)
# peptide: QVFQVSHSF
# notes: as for B1
# B4: SEQ ID NO 8 (peptide)
# peptide: GVLQGITSW
# notes: as for B1
# B5: SEQ ID NO 9 (peptide)
# peptide: VLVHPQWVL
# notes: as for B1
# B6: SEQ ID NO 3 (peptide)
# peptide: ILLGRHSLF
# notes: as for B1
# Molecular target: T1, HLA-A2402 molecule, which is a product of the HLA-A*2402 gene (human)
# T1 construct: MHC class I molecule on C1R-A24 cells, emptied by acid and reassociated with added β2m and the test peptide; also called HLA-A24 molecule; human HLA-A2402 molecule
# Test: flow cytometry; reassociation of peptide, added β2m and HLA-A2402 on acid-stripped C1R-A24 cells, stained with mAb 17A12
# Method: After neutralization, purified β2m was added to C1R-A24 cells, the obtained product was added to serial dilutions of a peptide, and incubated on ice for 4 hours.
# Subsequently, the MHC-pep count per C1R-A24 cell (proportional to the strength of fluorescence of the above-mentioned fluorescent antibody) was quantitatively measured using an FACScan fluorescence-activated cell sorter (Becton Dickinson Biosciences). A binding dissociation constant Kd value between the HLA-A24 molecule and the peptide was calculated from the average strength of fluorescence per cell by a published method (Udaka et al., Immunogenetics, 51, 816-828, 2000).
row,-log Kd,Binder
1,7.21 -log Kd,B1
2,6.65 -log Kd,B2
3,7.32 -log Kd,B3
4,5.38 -log Kd,B4
5,6.34 -log Kd,B5
6,7.47 -log Kd,B6
